Results as given in patent US20100278752A1 (RHODE ISLAND BOARD OF GOVERNORS FOR HIGHER EDUCATION, published 2010).

B1: Sialostatin L (other)
chain: MTGVFGGYSERANHQANPEFLNLAHYATSTWSAQQPGKTHFDTVAEVVKVETQVVAGTNYRLTLKVAESTCELTSTYNKDTCLPKADAAHRTCTTVVFENLQGDKSVSPFECEAA
B2: Sialostatin L2 (other)
chain: MELALRGGYRERSNQDDPEYLELAHYATSTWSAQQPGKTHFDTVVEVLKVETQTVAGTNYRLTLKVAESTCELTSTYNKDTCQANANAAQRTCTTVIYRNLQGEKSISSFECAAA
notes: Recombinant protein overexpressed in bacteria; also called second salivary cystatin; novel cystatin

Key:
Cathepsin V = experiment: cell-based or functional assay
Cathepsin S = experiment: cell-based or functional assay
Cathepsin C = experiment: cell-based or functional assay
Cathepsin X/Z/P = Cathepsin X/Z/P (Homo sapiens (Human), UniProt Q9UBR2 62-303); experiment: cell-based or functional assay
Sequence of Cathepsin X/Z/P (Q9UBR2 62-303 limits assumed, form in doubt): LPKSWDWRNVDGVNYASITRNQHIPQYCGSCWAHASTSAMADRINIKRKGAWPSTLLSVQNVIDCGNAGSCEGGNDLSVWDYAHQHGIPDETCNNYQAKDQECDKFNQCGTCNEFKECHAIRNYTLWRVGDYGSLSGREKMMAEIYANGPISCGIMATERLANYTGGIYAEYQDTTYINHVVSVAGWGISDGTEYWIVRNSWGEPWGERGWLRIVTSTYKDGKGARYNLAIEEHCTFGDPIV

Cathepsin L [1] = biological target: T1, Cathepsin L (Homo sapiens (Human), UniProt P07711 114-333); experiment: cell-based or functional assay
T1 sequence (P07711 114-333 limits assumed, form in doubt): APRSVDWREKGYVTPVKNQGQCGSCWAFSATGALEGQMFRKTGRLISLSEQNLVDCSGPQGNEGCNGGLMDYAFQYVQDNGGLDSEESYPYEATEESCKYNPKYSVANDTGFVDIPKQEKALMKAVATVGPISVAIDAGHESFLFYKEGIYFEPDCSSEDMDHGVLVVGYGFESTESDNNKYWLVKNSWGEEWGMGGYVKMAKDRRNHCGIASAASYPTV

Cathepsin L [2] = biological target: T1, Cathepsin L; experiment: enzyme kinetics for tight binding inhibition: Morrison's equation, Ki* plotted against substrate concentration, y intercept of the linear regression

Row | Binder | IC50 (inhibitor concentration at which 50% inhibition of enzymatic activity is achieved); 1 nM enzyme (Cathepsin V) [nM] | IC50 (inhibitor concentration at which 50% inhibition of enzymatic activity is achieved); 60 pM enzyme (Cathepsin S) [nM] | IC50 (inhibitor concentration at which 50% inhibition of enzymatic activity is achieved); 10 nM enzyme (Cathepsin C) [nM] | IC50 (inhibitor concentration at which 50% inhibition of enzymatic activity is achieved); 16 nM enzyme (Cathepsin X/Z/P) [nM] | IC50 (inhibitor concentration at which 50% inhibition of enzymatic activity is achieved); 20 pM enzyme (Cathepsin L [1]) [pM] | Ki (Cathepsin L [2]) [nM]
1 | B1 | 24.1 | 0.7 | 52.2 | 937 | 126 | 
2 | B2 | 28.8 | 378 | 740 |  | 70.9 | 0.0655
